The source of these data is US20260049134A1 (UNIVERSITY OF FLORIDA RESEARCH FOUNDATION, published 2026).

First the molecules themselves.
T1: GARS, endogenous in H929 multiple myeloma cells (human, UniProt P41250 37-739, limits assumed)
T1 construct: Native protein pulled down from H929 lysates; also called Glycyl-tRNA synthetase; GlyRS
T1 sequence: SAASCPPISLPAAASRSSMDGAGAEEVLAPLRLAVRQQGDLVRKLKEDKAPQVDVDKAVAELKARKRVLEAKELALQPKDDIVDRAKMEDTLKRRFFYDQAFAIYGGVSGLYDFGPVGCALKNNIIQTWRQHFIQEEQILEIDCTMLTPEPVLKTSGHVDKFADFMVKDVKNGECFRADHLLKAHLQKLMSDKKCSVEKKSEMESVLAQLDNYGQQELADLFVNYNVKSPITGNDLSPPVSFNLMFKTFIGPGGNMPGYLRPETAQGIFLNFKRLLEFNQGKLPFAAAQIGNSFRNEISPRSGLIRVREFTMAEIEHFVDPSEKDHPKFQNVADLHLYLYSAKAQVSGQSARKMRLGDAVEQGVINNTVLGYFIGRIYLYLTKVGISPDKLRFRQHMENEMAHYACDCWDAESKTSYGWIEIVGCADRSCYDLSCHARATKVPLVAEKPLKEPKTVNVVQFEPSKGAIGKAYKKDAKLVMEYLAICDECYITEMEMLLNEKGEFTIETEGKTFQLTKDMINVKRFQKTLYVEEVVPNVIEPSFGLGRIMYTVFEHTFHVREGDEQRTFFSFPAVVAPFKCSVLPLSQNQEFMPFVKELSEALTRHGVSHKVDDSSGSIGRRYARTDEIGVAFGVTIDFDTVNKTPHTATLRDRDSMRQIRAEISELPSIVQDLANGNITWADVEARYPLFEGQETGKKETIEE

T2: IL13RA1
T2 construct: also called IL13RA1-Fc-His (R&D Systems)
T2 chain: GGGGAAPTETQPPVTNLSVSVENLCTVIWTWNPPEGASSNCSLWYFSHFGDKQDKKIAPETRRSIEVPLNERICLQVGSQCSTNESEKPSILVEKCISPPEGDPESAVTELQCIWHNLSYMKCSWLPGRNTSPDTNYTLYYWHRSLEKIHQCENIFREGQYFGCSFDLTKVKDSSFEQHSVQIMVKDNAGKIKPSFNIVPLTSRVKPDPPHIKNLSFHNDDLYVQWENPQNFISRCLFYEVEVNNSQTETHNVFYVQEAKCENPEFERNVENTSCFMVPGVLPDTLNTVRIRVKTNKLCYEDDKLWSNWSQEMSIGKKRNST

T3: SLAMF7
T3 construct: also called SLAMF7-StrepTag; not shown: StrepTag and any linker
T3 chain: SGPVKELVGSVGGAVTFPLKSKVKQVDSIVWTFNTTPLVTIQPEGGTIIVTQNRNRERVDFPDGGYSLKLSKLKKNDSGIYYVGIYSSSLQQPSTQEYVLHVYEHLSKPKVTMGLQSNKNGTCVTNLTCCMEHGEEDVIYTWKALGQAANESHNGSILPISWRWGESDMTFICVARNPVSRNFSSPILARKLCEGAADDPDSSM

B1: HW-56 chimeric rabbit-human IgG1 LA/LA/PG (antibody, V domains shown)
VH: QSVKESEGGLFKPTDTLTLTCTASGFTVSTNAVTWVRQAPGNGLEYIGTIGRSGSAYFASWAKRRSTLTRDINLNTVTLKMTSLTAADTATYFCVRGSPGYRTAISIWGPGTLVTISS
VL: AVMTQTPSSTSAAVEGTVTINCQASQSISNRLSWFQQKPGQPPKLLIYQASTLASGVPSRFKGSGSGTEFTLTISGVQREDAATYYCLGSYSSSDASFGGGTKLEIKR
notes: Fc-silenced (L234A/L235A/P329G) IgG1, kappa; Alexa Fluor 647-labeled in single-step flow cytometry; Cluster C-45
B2: HW-28 chimeric rabbit-human IgG1 LA/LA/PG (antibody, V domains shown)
VH: QKQLVESGGRLVTPGTPLTLTCTASGFSLSSNAMSWVRQAPGEGLQWIGTISSGGSTYYASWAKGRFTISKTSTTVTLKMTSLTTEDTATYFCARGADLHRLWGPGTLVTVSS
VL: SFVLTQPASVQVNLGQTVSLTCTGKPLSRSFASWYQQKPGQAPVLVIYRDTSRPSGVPDRFSGSSSGNTATLTISGAQAGDEADYYCATSDGSGSSYQYVFGGGTQLTVTG
notes: Fc-silenced (L234A/L235A/P329G) IgG1, lambda; Alexa Fluor 647-labeled in single-step flow cytometry; Cluster C-45
B3: HW-42 chimeric rabbit-human IgG1 LA/LA/PG (antibody, V domains shown)
VH: QSVKESEGGLFKPADTLTLTCTVSGFSLSSNEISWVRQAPGEGLEYIGIIDTGGRAYYAVWARSRSTITRNTNLNTVTLKMTSLTAADTATYFCARGGVDTEWYAFSSWGPGTLVTVPS
VL: B2 VL with G24A, K25D, P26T, S30R, F31Y, V46L, Y48F, N68D, S96N
notes: Fc-silenced (L234A/L235A/P329G) IgG1, lambda; Alexa Fluor 647-labeled in single-step flow cytometry; Cluster C-1
B4: HW-70 chimeric rabbit-human IgG1 LA/LA/PG (antibody, V domains shown)
VH: QSLEESGGRLVTPGTPLTLTCTVSGFSLSSNAMSWVRQAPGKGLEWIGTIDGYGYTYYASWAKGRFTVSKTSTTVDLKITSPTTEDTATYFCAREIYLGSNFWGPGTLVTISS
VL: B2 VL with G24A, K25D, P26T, S30R, F31Y, V46L, S90A, Y99F
notes: as for B3
B5: HW-1 chimeric rabbit-human IgG1 LA/LA/PG (antibody, V domains shown)
VH: QSLEESGGGLFKPTDTLTLTCTASGFSLGSSYAISWVRQAPGKELEWIGTIDSGRAYYARWAKSRSTITRNTNENTVTLKMTSLTAADTATYFCARDLIPTYSQDIWGPGTLVTISS
VL: B2 VL with G24A, K25D, P26T, S30R, F31Y, V46L, S95N, G111S
notes: Fc-silenced (L234A/L235A/P329G) IgG1, lambda; Alexa Fluor 647-labeled in single-step flow cytometry; Prototype of cluster C-1
B6: HW-17 chimeric rabbit-human IgG1 LA/LA/PG (antibody, V domains shown)
VH: QSLGESRGRLVTPDETLTLTCTVSGIDLSSNAMSWVRQAPGEGLEWIGTINTGGRAYYASWAKGRFTISRTSTTVDLKMTSLTTEDTATYFCARERYSDGRAYDIWGPGTLVTISS
VL: SFVLTQPASVQVNLGQTVSLTCTADTLSRRYASWYQQKPGQAPVLLIYTDSNRPSGIPDRFSGSSSGNTATLTISGAQAGDEADYYCATDDGSGSIYQYVFGGGTQLTVTG
notes: as for B3
B7: HW-101 chimeric rabbit-human IgG1 LA/LA/PG (antibody, V domains shown)
VH: QEQLVESGGRLVTPGTPLTLTCKASGFSLGKYDMSWVRQAPGKGLEWIGTIYAGSGSTWYASWAKGRFTISKTSTTVDLKMTSLTTEDTATYFCARDFLGVNSIWGPGTLVTISS
VL: SFVLTQPASVQVNLGQTVSLTCTADTLSRSYASWYQQKPDQAPVLLIHRDTSRPSGVPDRFSGSNSGNTATLTISGAQAGDEADYYCATSDGSGSNFHFVFGGGTQLTVTG
notes: Fc-silenced (L234A/L235A/P329G) IgG1, lambda; Alexa Fluor 647-labeled in single-step flow cytometry; Cluster C-97
B8: HW-113 chimeric rabbit-human IgG1 LA/LA/PG (antibody, V domains shown)
VH: QKQLVESGGGLVQPGGSLTLTCTVSGFSLNKYYMGWFRQAPGKGLEWIGVISRSGDTYYSSWAKGRFTISKASTTVDLRITSPTTEDTATYFCARDASSPGFHGDRLDLWGQGTLVTVSS
VL: B7 VL with D40G, H48Y, N65S, S93I, F97Y, H98L, F99W
notes: Fc-silenced (L234A/L235A/P329G) IgG1, lambda; Alexa Fluor 647-labeled in single-step flow cytometry
B9: HW-25 chimeric rabbit-human IgG1 LA/LA/PG (antibody, V domains shown)
VH: QSLEESGGRLVTPGTPLTLTCTVSGFSLSSYAMGWVRQAPGKGLEWIGIIDSRGSTYYATWAKGRFTISKTSTTVDLKITSPTTEDTATYFCAREDSYYYDSFNLWGPGTLVTVSS
VL: B6 VL with T49R, S51T, N52S, I57V, D90S, I96S, Y99C
notes: as for B3
B10: HW-97 chimeric rabbit-human IgG1 LA/LA/PG (antibody, V domains shown)
VH: QKQLVESGGRLVTPGTPLTLTCTVTGIDLSSHGMSWVRQAPGKGLEWIGVIYPSGSTWYASWARGRFTISKTSTTVDLKMTSLTTEDTATHFCARGDVGGADNNIWGPGTLVTVSS
VL: B2 VL with N13D, G24A, K25E, P26T, F31Y, V46L
notes: Fc-silenced (L234A/L235A/P329G) IgG1, lambda; Alexa Fluor 647-labeled in single-step flow cytometry; Prototype of cluster C-97
B11: TH9-0022 (antibody, human IgG1, kappa, L234A L235A, V domains shown)
VH: QSLEESGGRLVTPGTPLTLTCTVSGFSLSSYAMNWVRQAPGKGLEWIGIINSYGSTYYASWAKGRFTISKTSTTVDLKITSPTTEDTATYFCARVTYDSYGYGYAPYGMDLWGPGTLVTVSS
VL: LVMTQTPSSTSNAVGGTVTIKCQASQSIGNVLAWYQQKPGQPPKLLIYAASTLASGVPSRVGGSRSGTEYTLTISGVQREDAATYYCLGSDSDSDIAFGGGTELEILR
notes: also called TH9-022; negative control IgG1
B12: TH9-0022 (antibody, human IgG1, kappa, L234A L235A, V domains shown)
VH: B11 VH
VL: B11 VL
notes: also called TH9-022; negative control

Substitutions are numbered along the chain they refer to. In names and notes the source's numbering stands.

For the first experiment, the target named is T1, GARS, endogenous in H929 multiple …. Nature of the experiment: flow cytometry, H929 + PTPRG siRNA; None 490; surface target GARS putative.
Turning to B1, the “mAb binding (MFI)” value turned out to be 479000.

For the molecule B2, the “mAb binding (MFI)” value was found to be 41900.

The target is the same in the next experiment. The experiment in a line: flow cytometry, H929 + ICAM1 siRNA; None 1.06; surface target GARS putative.
Regarding B1, the “Cells stained (%)” value turned out to be 99.2%.

Regarding B2, the “Cells stained (%)” value is 96.9%.

The target is the same in the next experiment. The experiment in a line: flow cytometry, H929 + CADM1 siRNA; None 449; surface target GARS putative.
For the molecule B1, the “mAb binding (MFI)” value is 547000.

Consider B2, for which the “mAb binding (MFI)” value turned out to be 66800.

The target is the same in another experiment. The experiment in a line: flow cytometry, H929 + vehicle; None 2.74; surface target GARS putative.
With B1, the “Cells stained (%)” value came to 99.5%.

With B2, the “Cells stained (%)” value was 98.6%.

The target in another experiment is T2, IL13RA1. Nature of the experiment: ELISA on coated protein.
In the case of B3, the binding result is on record as “no binding (tested: 150 ng IgG1 per well)”.

Regarding B4, the binding result is listed as “no binding (tested: 150 ng IgG1 per well)”.

Regarding B5, the binding result is listed as “no binding (tested: 150 ng IgG1 per well)”.

As to B6, the binding result is “no binding (tested: 150 ng IgG1 per well)”.

Take B7: the binding result was “no binding (tested: 150 ng IgG1 per well)”.

With B8, the binding result was “no binding (tested: 150 ng IgG1 per well)”.

For the molecule B9, the binding result was “no binding (tested: 150 ng IgG1 per well)”.

With B10, the binding result is listed as “no binding (tested: 150 ng IgG1 per well)”.

With B11, the binding result was “no binding (tested: 150 ng IgG1 per well)”.

A further experiment addresses T3, SLAMF7. Nature of the experiment: ELISA on coated protein.
For the molecule B3, the binding result is listed as “no binding (tested: 150 ng IgG1 per well)”.

With B4, the binding result is “no binding (tested: 150 ng IgG1 per well)”.

Consider B5, for which the binding result is reported as “no binding (tested: 150 ng IgG1 per well)”.

As for B6, the binding result was “no binding (tested: 150 ng IgG1 per well)”.

As for B7, the binding result is listed as “no binding (tested: 150 ng IgG1 per well)”.

Regarding B8, the binding result is on record as “no binding (tested: 150 ng IgG1 per well)”.

As for B9, the binding result is “no binding (tested: 150 ng IgG1 per well)”.

Turning to B10, the binding result is “no binding (tested: 150 ng IgG1 per well)”.

As for B11, the binding result was “no binding (tested: 150 ng IgG1 per well)”.

For a further experiment, the target named is T1, GARS, endogenous in H929 multiple …. Nature of the experiment: flow cytometry, H929 + ICAM1 siRNA; None 455; surface target GARS putative.
Regarding B1, the “mAb binding (MFI)” value came out at 497000.

B2: the “mAb binding (MFI)” value is 33900.

In the next experiment the target is T4, PTPRG, endogenous in H929 multiple myeloma cells (human, UniProt P23470 20-1445).
T4 construct: Native protein on H929 cells (flow cytometry, siRNA knockdown) and in H929 lysates (IP/MS); also called phosphatase receptor type γ
T4 sequence (P23470 20-1445 limits assumed): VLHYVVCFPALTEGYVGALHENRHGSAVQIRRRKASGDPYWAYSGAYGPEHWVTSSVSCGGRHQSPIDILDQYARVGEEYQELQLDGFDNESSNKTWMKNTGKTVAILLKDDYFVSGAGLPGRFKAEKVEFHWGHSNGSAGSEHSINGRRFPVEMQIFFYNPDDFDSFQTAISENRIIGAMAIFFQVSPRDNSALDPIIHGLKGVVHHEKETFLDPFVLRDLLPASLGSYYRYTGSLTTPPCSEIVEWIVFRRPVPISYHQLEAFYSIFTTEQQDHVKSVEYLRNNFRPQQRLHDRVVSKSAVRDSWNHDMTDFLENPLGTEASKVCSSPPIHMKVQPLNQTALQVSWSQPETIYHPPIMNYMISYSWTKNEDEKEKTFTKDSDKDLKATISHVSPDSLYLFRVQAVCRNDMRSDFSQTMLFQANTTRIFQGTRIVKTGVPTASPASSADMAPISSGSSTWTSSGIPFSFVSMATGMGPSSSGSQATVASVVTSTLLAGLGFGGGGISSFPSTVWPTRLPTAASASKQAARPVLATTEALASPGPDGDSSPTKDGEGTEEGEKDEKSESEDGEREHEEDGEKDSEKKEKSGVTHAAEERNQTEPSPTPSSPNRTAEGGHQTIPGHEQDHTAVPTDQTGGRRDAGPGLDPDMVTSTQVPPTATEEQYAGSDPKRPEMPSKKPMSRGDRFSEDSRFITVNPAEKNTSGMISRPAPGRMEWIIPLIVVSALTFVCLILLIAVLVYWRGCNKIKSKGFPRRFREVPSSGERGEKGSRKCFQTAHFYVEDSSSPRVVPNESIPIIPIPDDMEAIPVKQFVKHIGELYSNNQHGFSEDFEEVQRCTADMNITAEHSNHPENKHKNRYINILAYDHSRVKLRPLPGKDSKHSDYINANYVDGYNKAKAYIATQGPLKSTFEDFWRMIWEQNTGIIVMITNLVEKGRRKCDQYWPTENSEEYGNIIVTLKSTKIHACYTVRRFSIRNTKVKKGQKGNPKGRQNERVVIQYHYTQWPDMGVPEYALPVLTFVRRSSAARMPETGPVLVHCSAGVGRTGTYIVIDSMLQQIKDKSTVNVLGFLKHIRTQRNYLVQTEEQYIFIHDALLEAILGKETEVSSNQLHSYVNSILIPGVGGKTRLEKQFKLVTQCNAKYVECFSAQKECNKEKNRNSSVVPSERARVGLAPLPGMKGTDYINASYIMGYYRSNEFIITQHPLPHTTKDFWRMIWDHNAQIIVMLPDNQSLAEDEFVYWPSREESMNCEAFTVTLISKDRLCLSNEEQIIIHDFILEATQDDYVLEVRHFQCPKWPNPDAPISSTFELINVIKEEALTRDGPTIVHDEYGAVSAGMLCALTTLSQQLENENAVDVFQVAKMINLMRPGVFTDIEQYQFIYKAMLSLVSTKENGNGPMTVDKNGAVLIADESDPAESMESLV
Nature of the experiment: flow cytometry, H929 + vehicle; None 513.
Consider B3, for which the “mAb binding (MFI)” value was 8320.

In the case of B4, the “mAb binding (MFI)” value stood at 12300.

Take B5: the “mAb binding (MFI)” value was determined as 15000.

B6: the “mAb binding (MFI)” value worked out at 15700.

Consider B9, for which the “mAb binding (MFI)” value worked out at 7560.

Consider B12, for which the “mAb binding (MFI)” value amounted to 595.

For the next experiment, the target named is T1, GARS, endogenous in H929 multiple …. Nature of the experiment: flow cytometry, H929 + NT Green siRNA; None 1.35; surface target GARS putative.
For the molecule B1, the “Cells stained (%)” value is 99.7%.

Turning to B2, the “Cells stained (%)” value turned out to be 98.5%.
